# In article PMC11848091 (Heliyon, 2025):
# T1: Mouse TNFR1 (mouse, UniProt P25118)
# T1 sequence: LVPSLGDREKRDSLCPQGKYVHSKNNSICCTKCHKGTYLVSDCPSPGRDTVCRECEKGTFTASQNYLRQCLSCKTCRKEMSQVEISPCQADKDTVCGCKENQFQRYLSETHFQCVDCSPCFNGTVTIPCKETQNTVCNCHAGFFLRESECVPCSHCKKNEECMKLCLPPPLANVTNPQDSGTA
# B1: Mouse TNF (ligand)
# chain: LRSSSQNSSDKPVAHVVANHQVEEQLEWLSQRANALLANGMDLKDNQLVVPADGLYLVYSQVLFKGQGCPDYVLLTHTVSRFAISYQEKVNLLSAVKSPCPKDTPEGAELKPWYEPIYLGGVFQLEKGDQLSAEVNLPKYLDFAESGQVYFGVIAL
# Columns and labels:
# Assay in all cases: SPR
# [1] = target: T1, Mouse TNFR1
# [2] = target: Human CD163 (human, UniProt Q86VB7)
# Sequence of Human CD163 (Q86VB7 42-1050): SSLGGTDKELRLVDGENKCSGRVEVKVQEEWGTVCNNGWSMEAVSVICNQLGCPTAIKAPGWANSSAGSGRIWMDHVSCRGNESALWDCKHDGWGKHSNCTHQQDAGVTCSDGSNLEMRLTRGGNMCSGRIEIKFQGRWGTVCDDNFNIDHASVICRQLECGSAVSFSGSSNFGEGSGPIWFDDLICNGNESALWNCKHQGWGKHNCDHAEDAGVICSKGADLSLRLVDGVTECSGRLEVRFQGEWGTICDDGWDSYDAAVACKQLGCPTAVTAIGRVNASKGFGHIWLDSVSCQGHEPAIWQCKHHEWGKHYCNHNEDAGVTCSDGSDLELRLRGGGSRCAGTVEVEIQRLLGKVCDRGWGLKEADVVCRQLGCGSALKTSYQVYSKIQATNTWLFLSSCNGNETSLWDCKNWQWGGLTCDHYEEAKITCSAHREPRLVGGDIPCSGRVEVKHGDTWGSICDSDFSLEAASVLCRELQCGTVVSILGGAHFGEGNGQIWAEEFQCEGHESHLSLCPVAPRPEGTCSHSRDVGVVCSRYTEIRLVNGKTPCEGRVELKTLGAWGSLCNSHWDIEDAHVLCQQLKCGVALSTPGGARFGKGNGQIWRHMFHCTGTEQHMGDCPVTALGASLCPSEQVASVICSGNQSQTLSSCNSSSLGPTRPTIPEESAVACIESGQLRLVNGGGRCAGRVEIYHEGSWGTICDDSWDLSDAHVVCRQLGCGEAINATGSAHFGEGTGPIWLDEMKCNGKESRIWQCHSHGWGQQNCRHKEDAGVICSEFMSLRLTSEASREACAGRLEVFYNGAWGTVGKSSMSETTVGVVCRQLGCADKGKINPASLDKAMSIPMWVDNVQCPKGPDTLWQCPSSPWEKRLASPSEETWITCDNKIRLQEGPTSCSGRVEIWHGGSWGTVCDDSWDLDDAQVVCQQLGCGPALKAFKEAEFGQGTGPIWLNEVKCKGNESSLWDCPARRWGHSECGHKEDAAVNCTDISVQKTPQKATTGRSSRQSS
# [3] = target: Mouse CD163 (mouse, UniProt Q2VLH6)
# Sequence of Mouse CD163 (Q2VLH6 39-1045): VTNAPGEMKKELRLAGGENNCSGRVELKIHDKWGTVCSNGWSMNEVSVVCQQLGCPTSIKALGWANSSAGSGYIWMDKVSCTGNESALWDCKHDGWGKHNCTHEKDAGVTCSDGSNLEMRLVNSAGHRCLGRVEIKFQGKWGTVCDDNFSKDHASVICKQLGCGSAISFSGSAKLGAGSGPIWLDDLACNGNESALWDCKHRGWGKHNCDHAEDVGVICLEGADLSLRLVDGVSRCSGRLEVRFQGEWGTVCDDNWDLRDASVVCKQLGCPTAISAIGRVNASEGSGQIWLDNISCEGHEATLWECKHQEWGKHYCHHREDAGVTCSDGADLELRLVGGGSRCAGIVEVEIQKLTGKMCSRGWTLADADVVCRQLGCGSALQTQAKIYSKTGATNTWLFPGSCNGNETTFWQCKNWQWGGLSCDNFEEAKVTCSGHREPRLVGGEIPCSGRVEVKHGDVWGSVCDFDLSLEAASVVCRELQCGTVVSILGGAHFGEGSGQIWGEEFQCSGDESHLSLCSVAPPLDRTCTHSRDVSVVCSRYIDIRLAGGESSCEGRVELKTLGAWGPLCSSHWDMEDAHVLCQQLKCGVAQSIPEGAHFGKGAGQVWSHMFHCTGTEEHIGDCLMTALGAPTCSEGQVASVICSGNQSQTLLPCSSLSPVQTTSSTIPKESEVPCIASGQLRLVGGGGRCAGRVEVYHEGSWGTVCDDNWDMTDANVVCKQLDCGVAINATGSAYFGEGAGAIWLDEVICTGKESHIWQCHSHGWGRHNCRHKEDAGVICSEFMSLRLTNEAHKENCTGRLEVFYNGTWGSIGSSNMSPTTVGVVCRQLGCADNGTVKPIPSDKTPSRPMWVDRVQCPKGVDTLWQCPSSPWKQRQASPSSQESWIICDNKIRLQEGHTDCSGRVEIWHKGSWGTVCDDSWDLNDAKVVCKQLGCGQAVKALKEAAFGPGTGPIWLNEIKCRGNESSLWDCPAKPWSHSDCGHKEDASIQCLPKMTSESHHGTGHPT
binder,measurement,setting,value
B1,Kd,[1],69.6 nM
same,koff,[1],0.000379 s⁻¹
same,kon,[1],5450 M⁻¹ s⁻¹
same,Kd,[2],1.93 nM
same,koff,[2],0.000151 s⁻¹
same,kon,[2],78500 M⁻¹ s⁻¹
same,Kd,[3],0.093 nM
same,koff,[3],0.000232 s⁻¹
same,kon,[3],2.5e+06 M⁻¹ s⁻¹
